Measured values as given in PMC10781284, “Fluorescence Super-Resolution Imaging Chip for Gene Silencing Exosomes”.

Molecular target: PD-L1 (on HeLa exosomes) (human, UniProt Q9NZQ7 19-290)
Experiment: fluorescence colocalization on captured exosomes (AF647/PKH26); 1 nM aptamer; exosomes captured by CD63 aptamer; microfluidic channel, PBS (10 mM, pH 7.4) washes, 2% BSA block at room temperature; exosomes in culture medium; binding buffer of the aptamer not stated
Conditions: protein: native; label: 5' Alexa Fluor 647

PD-L1 (on HeLa exosomes), sequence (Q9NZQ7 19-290): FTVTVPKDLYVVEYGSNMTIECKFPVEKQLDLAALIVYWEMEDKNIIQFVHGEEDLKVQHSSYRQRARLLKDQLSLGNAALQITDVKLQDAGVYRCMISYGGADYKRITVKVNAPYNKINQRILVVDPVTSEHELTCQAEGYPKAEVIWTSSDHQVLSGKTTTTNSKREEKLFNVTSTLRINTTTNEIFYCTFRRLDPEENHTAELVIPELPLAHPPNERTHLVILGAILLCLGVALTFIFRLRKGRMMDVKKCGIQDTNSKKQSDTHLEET

B1: PD-L1 aptamer (PD-L1 adaptor strand) (ssDNA)
DNA: TACAGGTTCTGGGGGGTGGGTGGGGAACCTGTT
binding result: binds
